Test: yeast display, Sf9 membrane polyspecificity reagent, FACS + sequencing; frameworks hold sequencing errors
Outline: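 Nanobodies from a synthetic yeast display library (Saccharomyces cerevisiae BJ5465), induced 36–48 hours with galactose, were stained 1 hour at 4 °C with 10% biotinylated, detergent-solubilized Sf9 membrane reagent, enriched on streptavidin microbeads, then FACS-sorted. Anti-HA (expression) and streptavidin (reagent binding) fluorescence set low and high (top ~1%) gates. Polyreactivity labels come from the gate of origin. Genes were colony-PCR amplified, MiSeq 2 × 250 sequenced and filtered by CDR length.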

| Sequence | polyreactivity (PSR sort gate) |
| --- | --- |
| QVQLVESGGGLVQAGGSLRLSCAASGSIFARNAMGWYRQAPGKERELVAAISWSGGRTYYADSVKGRFTISRDNAKNTVYLQMNSLKPEDTAVYYCATDTWWGQGTQVTVSS | high polyreactivity |
| QVQLVESGGGLVQAGGSLRLSCAASGSIFARNAMGWYRQAPGKERELVASITSNSGNTYYADSVKGRFTISRDNAKNTVYLQMNSLKPEDTAVYYCAADQLSDEYDYWGQGTQVTVSS | high polyreactivity |
| QVQLVESGGGLVQAGGSLRLSCAASGSIFARYAMGWYIQAPGKEREFVAAISRSGGSTYYADSVKGRFTISRDNAKNTVYLQMNSLKPEDTAVYYCAARGGTKYDYWGQGTQVTVSS | high polyreactivity |
| QVQLVESGGGLVQAGGSLRLSCAASGSIFARYAMGWYRQAPGKERELVAAISSDGSTYYADSVKGRFTISRDNEKNTVYLQMNSLKPEDTAVYYCNTQFRYPQKYDYWGQGTQVTVSS | high polyreactivity |
| QVQLVESGGGLVQAGGSLRLSCAASGSIFARYAMGWYRQAPGKERELVAAISSNSASTYYADSVKGRFTSSRDNAKNTVYLQMNSLKPEDTAVDYCATAYRSDWLNDYWGQGTQVTVSS | low polyreactivity |
| QVQLVESGGGLVQAGGSLRLSCAASGSIFARYAMGWYRQAPGKERELVAALSGSGASTYYADSVKGRFTISRDNAKNTVYLQMNSLKPEDTAVYYCARPFLRRPTYRFETGYGYWGQGTQVTVSS | high polyreactivity |
| QVQLVESGGGLVQAGGSLRLSCAASGSIFARYTMGWYRQAPGKERELVARITSSGGSTYYADSVKGRFTISRDNAKNTVYLQMNSLKPEDTAVYYCAARYRRYVRFQGDYWGQGTQVTVSS | high polyreactivity |
| QVQLVESGGGLVQAGGSLRLSCAASGSIFASNAMGWYRQAPGKEREFVAAIRYSAGITYYADSVKGRFTISRDNAKNTVYLQMNSLKPEDTAVYFCSAYGWVNRWYSRFDYWGQGTQVTVSS | high polyreactivity |
| QVQLVESGGGLVQAGGSLRLSCAASGSIFASNAMGWYRQAPGKERELVAAITTSGDSTYYADSVKGRFTISRDHAKTTVYFQMNSLKPEDTAVYYCATDKGWGLMDSWGQGTQVTVSS | low polyreactivity |
| QVQLVESGGGLVQAGGSLRLSCAASGSIFASNAMGWYRQEPGKEREFVAAITWRTDRTYYADSVKGRFTISRDNEKNTVYLQMNSLKPEDTAGYYCAADTWFYRFYYWGQGTQVTVSS | high polyreactivity |
| QVQLVESGGGLVQAGGSLRLSCAASGSIFASNTMGWYRQAPGKERELVAGITKIGSSTYYADSVKGRFTISRDNAKNTVYLQMNSLKPEDTAVYYGNADYYFSWGSIEDYWGQGTQVSVSS | low polyreactivity |
| QVQLVESGGGLVQAGGSLRLSCAASGSIFASYAMGWYRQAPGKERELVAAISRSGGSTYYADSVKGRFTISRDNAKNTVYLQMNSLKPEDTAVYYCATGKIREDDYWGQGTQVTVSS | high polyreactivity |
| QVQLVESGGGLVQAGGSLRLSCAASGSIFATNTMGWYRQSPGKERELVATISSSDSTNYADSVKGRFTISRDNAKNTVYLEMNSLKPVDTAVYYCNKAYVDSTHGSYRWTYDYWGQGTQVTVSS | low polyreactivity |
| QVQLVESGGGLVQAGGSLRLSCAASGSIFATYAMGWYRQAPGKERELVAAITSSDGSTNYADSVKGRFTISRDNAKNTVDLQMNRLKPEDTAVYYCATDAPDRTDSDSGFDAGYDYWGQGTQVTLSS | low polyreactivity |
| QVQLVESGGGLVQAGGSLRLSCAASGSIFAVNAMGWYRQAPGKERELVAAITSGGNTYYADSVKGRFTISRDNAKNTVYLQMNSLKPEDTAVYYCATVFSVQGWYFGMNYWGQGTQVTVSS | low polyreactivity |
| QVQLVESGGGLVQAGGSLRLSCAASGSIFAVYAMGRYRQAPGKERELVASISRTGTTNYADSVKGRFTISRDNAKNTVYLQMNSLKPEDTAVYYCNADAYLYYKYHWGFTFYQYEYWGQGTQVTVSS | low polyreactivity |

| Sequence | polyreactivity (PSR sort gate) |
| --- | --- |
| QVQLVESGGGLVQAGGSLRLSCAASGSIFAVYAMGWYRQAPGKERELVATISGRGGSTYYADSVKVRFTISRDNAKNTVYLQMNSLKPEDTAVYYCNARVLFRRERMDSWGQGTKVTVSS | high polyreactivity |
| QVQLVESGGGLVQAGGSLRLSCAASGSIFAVYAMGWYRQAPGKERELVAVITRSGGSTYYADSVKGRFTISRDNAKNTVYLQMNSLKPEDTAVYYCAARRSYLLRYDYWGQGTQVTVSS | high polyreactivity |
| QVQLVESGGGLVQAGGSLRLSCAASGSIFAVYTMGWYRQAPGKEREFVAAITKSGGRTYYADSVKGRFTISRDNAKNTVYLQMNSLNPEDTAFYYCARRRTIPYTLVDYDSWGQGTQVTVSS | low polyreactivity |
| QVQLVESGGGLVQAGGSLRLSCAASGSIFAWYAMGWYRRAPGKESELVAAITWSGGSTYYADSVKGRFTISRDNAKNTVYLQMNSMKQEDTAVYYCAVEWYYRNNAIISGYYYWGKGTQVTVSS | high polyreactivity |
| QVQLVESGGGLVQAGGSLRLSCAASGSIFAWYGMGWYRQAPGKERELVAAITSTGSTYYADSVKGRFTISRDNAKKTVYLQMNSLKPEDTAVYYCNAYSVYLWRPGDYWGQGTQVTVSS | low polyreactivity |
| QVQLVESGGGLVQAGGSLRLSCAASGSIFAWYTMGWYRQAPGKERELVATITRGGSTTYADSVKGRFTISRDNAKITVYLQMNSLKPEDTAVYYCAADWRTKGYDSLGQGTQVTVSS | high polyreactivity |
| QVQLVESGGGLVQAGGSLRLSCAASGSIFAYNAMGRYRPAPGKERELGAAITSDDSTNYADSVKGRFTISRDNAKNSVYLQMNSLKPEDTAVYYCAAYYYYTYIIGYDYCGQGTQVTVSS | low polyreactivity |
| QVQLVESGGGLVQAGGSLRLSCAASGSIFAYNAMGWYRQAPGKERELVAAISSGGRTKYADSVKGRFTISRDNAKNTVYLQMNSLKPEDTAVYYCAAESYTGKYSWVWKWYDYWGQGTQVTVSS | low polyreactivity |
| QVQLVESGGGLVQAGGSLRLSCAASGSIFAYNTMGWYRQAPGKEREFVAAISWRGGSTYYADSVKGRFTISRDNAKNTVYLQMTSLKPEDTAVYYCNARYRNTFYTRRYDYWGQGTQVTVSS | high polyreactivity |
| QVQLVESGGGLVQAGGSLRLSCAASGSIFAYYALGWYRQAPGKERELVASIDWSGDLYVRDSVKGRFTISRDNAKNTVYFLMNSLKPEDTAVYYCAKDVSFQYGTGYDYWGQGNQVTVSS | low polyreactivity |
| QVQLVESGGGLVQAGGSLRLSCAASGSIFAYYAMGWYRQAPGKERELVAAIDSGGGTSYADSVKGRFTISRDNAKNTVYLQMNSLNPEDTAVYYCNAAGYVVYYRIIAFGYWGQGTLVTVSS | low polyreactivity |
| QVQLVESGGGLVQAGGSLRLSCAASGSIFAYYAMGWYRQAPGKERELVAAITSGDSTYYADSVKGRFTISRDNAKNTVYLQMNSLKPEDTAVYYCAADVSWRSNWYDYWGQGTQVTVSS | low polyreactivity |
| QVQLVESGGGLVQAGGSLRLSCAASGSIFAYYTMGWYRQAPGKEREFVAAISYSGGSTYYADSVKGRFTISRDNAKNTVYLQMNSLKPEDTAVYYCFPGKTRLYGYWGQGTQVTVSS | high polyreactivity |
| QVQLVESGGGLVQAGGSLRLSCAASGSIFAYYVMGWYRQAPGKERELVAAISRSGGRTYYADSVKGRFTISRDNAKNTVYLQMNSLKPEETAVYYCNSELYSRPPGAQDPRLRFDYWGQGTQVTVSS | high polyreactivity |
| QVQLVESGGGLVQAGGSLRLSCAASGSIFCYYAMGWYRQAPGKERELVATITSGGSTSYADSVKGRFTISRDNAKNTVYLQMNSLKPEDTAVYYCAAARLFTTYDWGQGTQVTVSS | low polyreactivity |
| QVQLVESGGGLVQAGGSLRLSCAASGSIFDAYMGWYRQAPGKERELVAGITRSGGSTYYADSVKGRFTISRDNAKNSVYLQMNSLKPEDTAVYYCAADYSSDGDYWGQGTQVTVSS | low polyreactivity |

From the nanobody polyreactivity screen of Harvey et al. (2022)
